# B1: hRUNX1 int3-4 (ssRNA)
# RNA: UCUCUUCCCUCCCUCCUUCCCUCCCCCCAU
# B2: mRunx1 int3-4 (ssRNA)
# RNA: UCCUCCUCCCUUCCCCUCCCGGUCCCUA
# Target: hnRNP K (UniProt P61978 1-463)
# Test: fluorescence anisotropy
binder,measurement,value
B1,Kd,13.5 nM
B2,Kd,14.5 nM

# From article PMC9732523
